The record followed here is publication PMC7889724.

The stoichiometry N is a count of units in the complex or per binding partner.

The target of the experiment is T1, recombinant full-length GST-UVR8 (Arabidopsis), Q9FN03.
T1 chain: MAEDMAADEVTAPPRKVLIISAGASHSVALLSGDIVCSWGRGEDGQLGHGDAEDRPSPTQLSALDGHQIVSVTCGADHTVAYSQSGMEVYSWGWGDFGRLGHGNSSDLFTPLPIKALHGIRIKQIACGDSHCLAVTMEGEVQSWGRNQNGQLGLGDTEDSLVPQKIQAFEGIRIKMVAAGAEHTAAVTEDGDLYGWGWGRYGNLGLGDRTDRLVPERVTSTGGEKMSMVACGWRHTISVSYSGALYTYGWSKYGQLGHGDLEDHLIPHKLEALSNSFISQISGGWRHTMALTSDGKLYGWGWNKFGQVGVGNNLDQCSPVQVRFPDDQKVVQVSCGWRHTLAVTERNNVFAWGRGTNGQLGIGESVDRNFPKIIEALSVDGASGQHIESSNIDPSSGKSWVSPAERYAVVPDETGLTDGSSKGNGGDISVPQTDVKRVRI
As to the kind of experiment: SDS-PAGE of non-boiled protein. To be noted: remark: other sources report otherwise.

B1: recombinant full-length GST-UVR8, Q9FN03 1-440 (receptor)
chain: MAEDMAADEVTAPPRKVLIISAGASHSVALLSGDIVCSWGRGEDGQLGHGDAEDRPSPTQLSALDGHQIVSVTCGADHTVAYSQSGMEVYSWGWGDFGRLGHGNSSDLFTPLPIKALHGIRIKQIACGDSHCLAVTMEGEVQSWGRNQNGQLGLGDTEDSLVPQKIQAFEGIRIKMVAAGAEHTAAVTEDGDLYGWGWGRYGNLGLGDRTDRLVPERVTSTGGEKMSMVACGWRHTISVSYSGALYTYGWSKYGQLGHGDLEDHLIPHKLEALSNSFISQISGGWRHTMALTSDGKLYGWGWNKFGQVGVGNNLDQCSPVQVRFPDDQKVVQVSCGWRHTLAVTERNNVFAWGRGTNGQLGIGESVDRNFPKIIEALSVDGASGQHIESSNIDPSSGKSWVSPAERYAVVPDETGLTDGSSKGNGGDISVPQTDVKRVRI
Take B1: the stoichiometry N is 2.
